Assay results from US11046988B2, “Process for the modification of a glycoprotein using a β-(1,4)-N-acetylgalactosaminyl transferase or a mutant thereof” (Synaffix B.V., priority 2014, dated 2021).

Columns and labels:
Assay type in all cases: biochemical
[1] = test system: GlcNAc-Man5-GlcNAc-GlcNAc(Fuc)-substituted trastuzumab (formula 26); assay: Glycosyltransfer of GalNAz to GlcNAc-Man5-GlcNAc-GlcNAc(Fuc)-substituted trastuzumab, MS analysis; conditions: UDP-GalNAz 0.5 mM, CeGalNAcT 0.1 mg/mL, 10 mM MnCl2, pH 8.0, 16 hours, 30° C.
Experimental: Trastuzumab transiently expressed in the presence of swainsonine as described in Example 18 (10 mg/mL) was incubated with neuraminidase (0.5 mU/mg IgG) from Vibrio cholerae (commercially available from Sigma-aldrich) in 100 mM sodium acetate pH 6.0 and 2 mM CaCl2 for 16 hrs, which led to complete removal of the sialic acid (two major heavy chain products of 50712 and 50874 Da which correspond to approximately 20 and 70% of the total heavy chain products). When the same reaction was performed in the presence of β(1,4)-galactosidase (3 mU/mg IgG) from Streptococcus pneumoniae (commercially available from Calbiochem), a single major heavy chain product was observed corresponding to trastuzumab with a GlcNAc-Man5-GlcNAc-GlcNAc(Fuc)-substituted heavy chain (c=d=0, 50712 Da, ±90% of total heavy chain product, and minor heavy chain products between 50700 and 50900 Da).
A solution of 50 μg (modified) IgG, 1 M Tris-HCl pH 8.0, 1 mM EDTA and 30 mM DTT with a total volume of approximately 70 μL was incubated for 20 minutes at 37° C. to reduce the disulfide bridges allowing to analyze both light and heavy chain. If present, azide-functionalities are reduced to amines under these conditions. […] The reduced IgG was analyzed by electrospray ionization time-of-flight (ESI-TOF) on a JEOL AccuTOF. […]

[2] = test system: trimmed trastuzumab (core GlcNAc(Fuc) / core GlcNAc, glycan of formula (1)); assay: Glycosyltransfer of sugar derivative to trimmed (Endo S deglycosylated) trastuzumab, MS analysis; conditions: for major heavy chain product, F2-GalNAz transfer to core GlcNAc(Fuc)-substituted trastuzumab: UDP-F2-GalNAz 0.4 mM; for conversion of the starting material into two products: UDP-GalNProSH 2 mM
Experimental: Trimming of IgG glycans was performed using Endo S from Streptococcus pyogenes (commercially available from Genovis, Lund, Sweden). The IgG (10 mg/mL) was incubated with Endo S (40 U/mL) in 25 mM Tris pH 8.0 for approximately 16 hours at 37° C. The deglycosylated IgG was concentrated and washed with 10 mM MnCl2 and 25 mM Tris-HCl pH 8.0 using an Amicon Ultra-0.5, Ultracel-10 Membrane (Millipore).
Trastuzumab was subjected to the trimming protocol above. Analysis of the trimmed antibody was performed on a JEOL AccuToF equipped with an Agilent 1100 HPLC. Samples (2 μL) were reduced with DTT (2 μL) during 10 min and subsequently diluted with H2O (40 μL) prior to injection. […] The two peaks of heavy chain belonged to one major product (49496 Da, 90% of total heavy chain), resulting from core GlcNAc(Fuc) substituted trastuzumab, and a minor product (49351 Da, ±10% of total heavy chain), resulting from core GlcNac substituted trastuzumab. This is an example of a glycoprotein comprising a glycan according to formula (1).
(§1) A solution of 50 μg (modified) IgG, 1 M Tris-HCl pH 8.0, 1 mM EDTA and 30 mM DTT with a total volume of approximately 70 μL was incubated for 20 minutes at 37° C. to reduce the disulfide bridges allowing to analyze both light and heavy chain. If present, azide-functionalities are reduced to amines under these conditions. Reduced samples were washed trice with milliQ using an Amicon Ultra-0.5, Ultracel-10 Membrane (Millipore) and concentrated to 10 μM (modified) IgG. The reduced IgG was analyzed by electrospray ionization time-of-flight (ESI-TOF) on a JEOL AccuTOF. Deconvoluted spectra were obtained using Magtran software.
Enzymatic introduction of galactose derivative (e.g. azido-containing sugar) onto IgG was effected with a GalNAc-transferase or a mutant thereof. The deglycosylated IgG (prepared as described above, 10 mg/mL) was incubated with a modified UDP-galactose derivative (e.g. an azido-modified sugar-UDP derivative) (0.4 mM) and GalNAcT (1 mg/mL) in 10 mM MnCl2 and 25 mM Tris-HCl pH 8.0 for 16 hours at 30° C. The functionalized IgG (e.g. azido-functionalized IgG) was incubated with protein A agarose (40 μL per mg IgG) for 2 hours at 4° C. The protein A agarose was washed three times with PBS and the IgG was eluted with 100 mM glycine-HCl pH 2.7. The eluted IgG was neutralized with 1 M Tris-HCl pH 8.0 and concentrated and washed with PBS using an Amicon Ultra-0.5, Ultracel-10 Membrane (Millipore) to a concentration of 15-20 mg/mL.
Enzymatic introduction of galactose derivative (e.g. thio-containing sugar 21) onto IgG was effected with a GalNAc-transferase or a mutant thereof. The deglycosylated IgG (prepared as described above, 10 mg/mL) was incubated with a modified UDP-galactose derivative (e.g. an thio-modified sugar-UDP derivative) (2 mM) and GalNAcT (0.2 mg/mL) in 10 mM MnCl2 and 50 mM Tris-HCl pH 6.0 for 16 hours at 30° C. The functionalized IgG (e.g. thio-functionalized trastuzumab) was incubated with protein A agarose (40 μL per mg IgG) for 1 hours at rt. The protein A agarose was washed three times with TBS (pH 6.0) and the IgG was eluted with 100 mM glycine-HCl pH 2.5. The eluted IgG was neutralized with 1 M Tris-HCl pH 7.0 and concentrated and washed with 50 mM Tris-HCl pH 6.0 using an Amicon Ultra-0.5, Ultracel-10 Membrane (Millipore) to a concentration of 15-20 mg/mL.

[3] = test system: GlcNAc2-Man3-GlcNAc-GlcNAc(Fuc)-substituted trastuzumab (formula 27); assay: Glycosyltransfer of GalNAz to galactosidase-trimmed trastuzumab, MS analysis; conditions: UDP-GalNAz 0.5 mM, CeGalNAcT 0.1 mg/mL, 10 mM MnCl2, pH 8.0, 16 hours, 22° C.
Experimental: Trastuzumab (10 mg/mL) in 50 mM sodium phosphate pH 6.0 and β(1,4)-galactosidase (3 mU/mg IgG) from Streptococcus pneumoniae (commercially available from Calbiochem) was stirred for 16 hrs at 37° C. prior to analysis by MS. A single major heavy chain product was observed corresponding to trastuzumab with a GlcNAc2-Man3-GlcNAc-GlcNAc(Fuc)-substituted heavy chain (c=d=0, 50592 Da).
as §1
Trastuzumab obtained after trimming with galactosidase (as in Formula 27, preparation described in Example 24) was subjected to the glycosyltransfer protocol with UDP-GalNAz and GalNAcT.

[4] = GalNAcT 1 mg/mL, 10 mM MnCl2, pH 8.0, 16 hours, 30° C.
[5] = UDP-GalNAz 0.4 mM, GalNAcT 1 mg/mL, 10 mM MnCl2, pH 8.0, 16 hours, 30° C.

Row | Molecule | conversion into GalNAz-GlcNAc-Man5-GlcNAc-GlcNAc(Fuc)-substituted trastuzumab [1] | major heavy chain product (GalNAz-GlcNAc-Man5-GlcNAc-GlcNAc(Fuc)-substituted) [1] | major heavy chain product, F2-GalNAz transfer to core GlcNAc(Fuc)-substituted trastuzumab [2, 4] | major product, F2-GalNBAz transfer to core GlcNAc(Fuc) substituted trastuzumab heavy chain ([2]; UDP-F2GalNBAz 7 mM, CeGalNAcT 2 mg/mL, 10 mM MnCl2, pH 8.0, 30° C. overnight) | major product, GalNAz transfer to core GlcNAc(Fuc) substituted trastuzumab [2, 5] | minor product, GalNAz transfer to core GlcNAc substituted trastuzumab [2, 5] | conversion of the starting material into two products ([2]; CeGalNAcT 1 mg/mL, overnight) | conversion into (GalNAz-GlcNAc)2-Man3-GlcNAc-GlcNAc(Fuc)-substituted trastuzumab [3] | major heavy chain product ((GalNAz-GlcNAc)2-Man3-GlcNAc-GlcNAc(Fuc)-substituted) [3] | conversion, GalNBzN3 transfer to core GlcNAc(Fuc) substituted trastuzumab ([2]; UDP-GalNBzN3 4 mM, TnGalNAcT 0.7 mg/mL, overnight) | conversion of the starting material into two products ([2]; TnGalNAcT 0.2 mg/mL, overnight) | conversion, GalNPyrN3 transfer to core GlcNAc(Fuc) substituted trastuzumab ([2]; UDP-GalNPyrN3 4 mM, TnGalNAcT 0.5 mg/mL, overnight)
1 | CeGalNAcT: truncated Caenorhabditis elegans β-(1,4)-GalNAcT, amino acids 30-383 of SEQ ID NO: 2 (SEQ ID NO: 6) | complete conversion | ~90 % of the total heavy chain products | approximately 90 % of total heavy chain | approximately 90 % of total heavy chain | 90 % of total heavy chain | ~10 % of total heavy chain | Full conversion | complete conversion | ~90 % of the total heavy chain products | – | – | –
2 | TnGalNAcT: truncated Trichoplusia ni β-(1,4)-GalNAcT, amino acids 33-421 of SEQ ID NO: 4 (SEQ ID NO: 8) (protein, TnGalNAcT(33-421)) SPLRTYLYTPLYNATQPTLRNVERLAANWPKKIPSNYIEDSEEYSIKNISLSNHTTRASVVHPPSSITETASKLDKNMTIQDGAFAMISPTPLLITKLMDSIKSYVTTEDGVKKAEAVVTLPLCDSMPPDLGPITLNKTELELEWVEKKFPEVEWGGRYSPPNCTARHRVAIIVPYRDRQQHLAIFLNHMHPFLMKQQIEYGIFIVEQEGNKDFNRAKLMNVGFVESQKLVAEGWQCFVFHDIDLLPLDTRNLYSCPRQPRHMSASIDKLHFKLPYEDIFGGVSAMTLEQFTRVNGFSNKYWGWGGEDDDMSYRLKKINYHIARYKMSIARYAMLDHKKSTPNPKRYQLLSQTSKTFQKDGLSTLEYELVQVVQYHLYTHILVNIDERS | – | – | approximately 90 % of total heavy chain | – | – | – | – | – | – | About 70% | Full conversion | About 50%
